Experimental data published in paper PMC9307851.

Columns and labels:
[1] = target: DNMT3B MTase domain L664P (human, UniProt Q9UBC3 569-853, L664P); experiment: ITC; 5 C; N.M. (not measurable); text says much reduced; ITC: 20 mM Tris-HCl pH 7.2, 200 mM NaCl, 5% glycerol, 2 mM b-mercaptoethanol, 5 C; EMSA: 50 mM Tris-HCl pH 8.0, 25% glycerol, 8% glucose, 2 mM DTT, 0.1 mg/mL BSA, 30 min, gel in 0.5x TBE at 4 C; settings: protein: recombinant; tags: His6-MBP removed by TEV; (only upper strand given)
[2] = target: DNMT3B MTase domain R670Q (human, UniProt Q9UBC3 569-853, R670Q); experiment: ITC; 5 C; N fixed at 0.5; ITC: 20 mM Tris-HCl pH 7.2, 200 mM NaCl, 5% glycerol, 2 mM b-mercaptoethanol, 5 C; EMSA: 50 mM Tris-HCl pH 8.0, 25% glycerol, 8% glucose, 2 mM DTT, 0.1 mg/mL BSA, 30 min, gel in 0.5x TBE at 4 C; settings: protein: recombinant; tags: His6-MBP removed by TEV; (only upper strand given)

B1: 24-mer DNA duplex (GAC)8 (dsDNA)
DNA 1: GACGACGACGACGACGACGACGAC
DNA 2: GTCGTCGTCGTCGTCGTCGTCGTC
In the case of B1, the binding result [1] is reported as “no binding” and the Kd [2] is reported as 24.4 ± 4.4 µM.
